Assay results published in FireProtDB (doi:10.1016/0014-5793(94)01308-n).
Several values for one entry are separate records, joined by “and”; a condition that tells them apart may be missing. Equal entries are not always repeated.

Settings: Sus scrofa, Thermal, DSC, Sodium phosphate 5 mM, reversible: yes, whole UniProt chain shown

B1: Gastricsin wild type, P30879 (protein)
chain: SVIKVPLKKLKSIRQAMKEKGLLEEFLKTHKYDPAQRYRIGDISVALEPMAYLEAAYFGEISIGTPPQNFLVL
pH 6
  Tm: 66.2 °C
  unfolding enthalpy (calorimetric): 254 kcal/mol
pH 6.4
  unfolding enthalpy (calorimetric): 248 kcal/mol and 269 kcal/mol
pH 6.8
  Tm: 47.2 °C
  unfolding enthalpy (calorimetric): 221 kcal/mol
pH 7.2
  Tm: 56.1 °C
  unfolding enthalpy (calorimetric): 195 kcal/mol
pH 7.3
  Tm: 39.8 °C
  unfolding enthalpy (calorimetric): 192 kcal/mol
pH 7.7
  Tm: 55 °C
  unfolding enthalpy (calorimetric): 173 kcal/mol
pH 8
  Tm: 51.1 °C
  unfolding enthalpy (calorimetric): 182 kcal/mol
pH 8.2
  Tm: 33.8 °C
  unfolding enthalpy (calorimetric): 170 kcal/mol
